The results in this text go back to US20030153523, “Methods for identifying RNA binding compounds” (University of Medicine and Dentistry of New Jersey, published 2003).

The target of the series is T1, Tat (48-57) peptide (HIV-1).
T1 chain: GRKKRRQRRR

By Kd is commonly meant the equilibrium constant for the complex coming apart. The low end stands for a tighter complex, the high end for a looser complex. Turning to GGCAGAUCUGAGCCUGGGAGCUCUCUGCC (ssRNA) [TAR RNA (wild type)], the Kd was determined as 727 nM. That is a sub-micromolar value.
